Measurements published in patent US20200331999 (published 2020).

Assays:
human TIGIT ECD [1] = molecular target: T1, human TIGIT ECD (human); test: SPR, pH 6.0
T1 chain: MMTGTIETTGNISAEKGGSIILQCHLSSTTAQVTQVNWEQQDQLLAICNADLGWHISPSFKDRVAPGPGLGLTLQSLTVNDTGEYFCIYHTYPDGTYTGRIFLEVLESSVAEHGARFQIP

human TIGIT-Fc [2] = molecular target: T2, human TIGIT-Fc (human); test: competition, FACS, blocking binding to PVR on HEK293
T2 chain: T1 chain

human TIGIT-Fc [3] = molecular target: T2, human TIGIT-Fc; test: competition, FACS, blocking binding to PVR-L2 on HEK293
human TIGIT ECD [4] = molecular target: T1, human TIGIT ECD; test: SPR, pH 7.4

B1: hu1217-2-2/IgG1 (antibody, V domains shown)
VH: EVQLVESGGGLVQPGGSLRLSCAASGFTFSDYYMYWVRQAPGKGLEWVAYITKGGGSTYYPDSVKGRFTISRDNAKNTLYLQMNSLRAEDTAVYYCARQTNYDFTMDYWGQGTLVTVSS
VL: EIVMTQSPATLSVSPGERATLSCKASQDVGTSVAWYQQKPGQAPRLLIYWASARHTGIPARFSGSGSGTEFTLTISSLQSEDFAVYYCQQYSSYPLTFGGGTKVEIK
modifications: wild-type human IgG1 Fc
Kd (human TIGIT ECD [1]): 0.0299 nM
IC50 (human TIGIT-Fc [2]): 0.64 µg/mL
IC50 (human TIGIT-Fc [3]): 0.25 µg/mL
Kd (human TIGIT ECD [4]): 0.219 nM
